This assay deals with leptin receptor on reporter cells (SIE-luciferase reporter cells; Ba/F3-lepR reporter cells), P48357. Description: cell-based or functional assay.

Data on five molecules can be found in patent US20220275097A1.

Sequence of leptin receptor on reporter cells (SIE-luciferase reporter cells; Ba/F3-lepR reporter cells), P48357 (P48357 22-1165): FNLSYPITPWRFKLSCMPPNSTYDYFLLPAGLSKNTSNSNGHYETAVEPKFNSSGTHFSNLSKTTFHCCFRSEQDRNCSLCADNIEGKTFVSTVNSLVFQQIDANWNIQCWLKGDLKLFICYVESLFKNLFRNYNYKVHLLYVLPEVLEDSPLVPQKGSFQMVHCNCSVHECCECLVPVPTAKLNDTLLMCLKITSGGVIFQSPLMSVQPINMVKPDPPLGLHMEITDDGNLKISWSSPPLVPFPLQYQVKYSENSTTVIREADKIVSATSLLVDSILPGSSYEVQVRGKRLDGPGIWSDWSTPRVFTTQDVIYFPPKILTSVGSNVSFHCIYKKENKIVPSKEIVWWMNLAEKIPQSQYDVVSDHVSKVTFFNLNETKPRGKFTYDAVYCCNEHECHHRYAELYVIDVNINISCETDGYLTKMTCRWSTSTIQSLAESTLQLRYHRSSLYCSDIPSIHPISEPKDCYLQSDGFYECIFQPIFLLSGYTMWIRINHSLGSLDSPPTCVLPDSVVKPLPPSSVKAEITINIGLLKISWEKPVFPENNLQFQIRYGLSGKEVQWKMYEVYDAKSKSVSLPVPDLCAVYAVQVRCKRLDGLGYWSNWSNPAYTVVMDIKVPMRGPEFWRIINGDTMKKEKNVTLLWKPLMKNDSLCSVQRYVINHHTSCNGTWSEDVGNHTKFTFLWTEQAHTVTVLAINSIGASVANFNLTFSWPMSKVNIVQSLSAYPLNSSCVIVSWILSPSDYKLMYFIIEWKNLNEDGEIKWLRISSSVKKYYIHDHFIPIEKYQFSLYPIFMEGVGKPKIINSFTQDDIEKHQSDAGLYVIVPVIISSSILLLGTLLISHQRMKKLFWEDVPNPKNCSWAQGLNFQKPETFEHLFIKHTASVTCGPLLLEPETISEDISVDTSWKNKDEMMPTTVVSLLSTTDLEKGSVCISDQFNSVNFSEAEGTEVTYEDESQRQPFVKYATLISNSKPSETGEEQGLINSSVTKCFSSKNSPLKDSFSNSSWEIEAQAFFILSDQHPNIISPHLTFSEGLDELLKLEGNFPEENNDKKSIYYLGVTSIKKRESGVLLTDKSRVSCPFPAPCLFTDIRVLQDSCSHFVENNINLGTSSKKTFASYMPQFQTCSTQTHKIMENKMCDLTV

B1: S2H7 (antibody, V domains shown)
VH: QVQLLQSGGGVVQPGRSLRLSCAASGFTFSSYGMHWVRQAPGKGLEWVAVISYDGSNKYYADSVKGRFTISRDNSKNTLYLQMNSLRAEDTAVYYCATRYENYFSTWGQGTLVTVSS
VL: EIVLTQSPGTLSLSPGERATLSCRASQSVSSNYLAWYQQKPGQAPRLLIYGASSRPTGIPDRFSGSGSGTDFTLTISRLEPEDFAVYYCQQYAASPLTFGGGTKLEIK
B1 yielded an EC50(M), Cell proliferation assay (Ba/F3-lepR) of 1.15e-09 M; an EC50(M), Luciferase assay of 4.94e-10 M; an EC50, SIE-luciferase reporter assay of 0.494 nM.

B2: S2H2 (antibody, V domains shown)
VH: QVQLLQSGGGVVQPGRSLRLSCAASGFTFSSYGMHWVRQAPGKGLEWVAVISYDGSNKYYADSVKGRFTISRDNSKNTLYLQMNSLRAEDTAVYYCATFRENYFEYWGQGTLVTVSS
VL: EIVLTQSPGTLSLSPGERATLSCRASQSVSSNYLAWYQQKPGQAPRLLIYGASSRPTGIPDRFSGSGSGTDFTLTISRLEPEDFAVYYCQQYAASPLTFGGGTKLEIK
In the case of B2, the EC50(M), Cell proliferation assay (Ba/F3-lepR) was determined as 6.87e-10 M; the EC50(M), Luciferase assay came to 6.52e-10 M; the EC50, SIE-luciferase reporter assay was found to be 0.652 nM.

B3: S2H5 (antibody, V domains shown)
VH: QVQLLQSGGGVVQPGRSLRLSCAASGFTFSSYGMHWVRQAPGKGLEWVAVISYDGSNKYYADSVKGRFTISRDNSKNTLYLQMNSLRAEDTAVYYCASRYENYFSLWGQGTLVTVSS
VL: EIVLTQSPGTLSLSPGERATLSCRASQSVSSNYLAWYQQKPGQAPRLLIYGASSRPTGIPDRFSGSGSGTDFTLTISRLEPEDFAVYYCQQYAASPLTFGGGTKLEIK
For the molecule B3, the EC50(M), Cell proliferation assay (Ba/F3-lepR) came out at 1.63e-09 M; the EC50(M), Luciferase assay was 7.38e-10 M; the EC50, SIE-luciferase reporter assay was 0.738 nM.

B4: S2H3 (antibody, V domains shown)
VH: QVQLLQSGGGVVQPGRSLRLSCAASGFTFSSYGMHWVRQAPGKGLEWVAVISYDGSNKYYADSVKGRFTISRDNSKNTLYLQMNSLRAEDTAVYYCAGVRENYFTYWGQGTLVTVSS
VL: EIVLTQSPGTLSLSPGERATLSCRASQSVSSNYLAWYQQKPGQAPRLLIYGASSRPTGIPDRFSGSGSGTDFTLTISRLEPEDFAVYYCQQYAASPLTFGGGTKLEIK
As to B4, the EC50(M), Cell proliferation assay (Ba/F3-lepR) turned out to be 1.93e-10 M; the EC50(M), Luciferase assay was 3.28e-10 M; the EC50, SIE-luciferase reporter assay was 0.328 nM.

B5: S2H1 (antibody, V domains shown)
VH: QVQLLQSGGGVVQPGRSLRLSCAASGFTFSSYGMHWVRQAPGKGLEWVAVISYDGSNKYYADSVKGRFTISRDNSKNTLYLQMNSLRAEDTAVYYCASLYENYFSLWGQGTLVTVSS
VL: EIVLTQSPGTLSLSPGERATLSCRASQSVSSNYLAWYQQKPGQAPRLLIYGASSRPTGIPDRFSGSGSGTDFTLTISRLEPEDFAVYYCQQYAASPLTFGGGTKLEIK
On to B5, for which the EC50(M), Cell proliferation assay (Ba/F3-lepR) is 4.19e-10 M; the EC50(M), Luciferase assay turned out to be 4.53e-10 M; the EC50, SIE-luciferase reporter assay worked out at 0.453 nM.
